# According to patent publication US20090203038A1 (AbbVie / Abbott, published 2009):
# Molecular target: T1, biotinylated cyclic BNP (1-32c) (human, biotinylated; cyclic)
# T1 construct: also called human BNP
# Assay: flow cytometry, yeast-displayed scFv, biotinylated cyclic BNP (1-32c) detected with SA:PE
# Description: Dilutions of the transformation reaction were plated on selective glucose plates (2% glucose (0.67% yeast nitrogen base, 0.105% HSM-trp-ura, 1.8% bacterial agar, 18.2% sorbitol, 0.86% NaH₂PO₄H₂O, 1.02% Na₂HPO₄ 7H₂O)) and incubated at 30° C. for 48-72 hours. Selective glucose media was inoculated with individual colonies and grown shaking at 30° C. for 16-20 hours. Protein expression was induced in colonies by transferring 0.5 OD600 of cells/ml (1e7 cells/0.5 OD/ml) to selective galactose media. Colonies were shaken at 20° C. for 16-24 hours and then analyzed by the FACS Aria flow cytometer for binding to cyclic BNP (referred to as “1-32c”) (SEQ ID NO:10) and anti-V5.
# T1 sequence (peptide, as listed by the source): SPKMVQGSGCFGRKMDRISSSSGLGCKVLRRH
binder,measurement,value
"3-631-436 scFv (wildtype), displayed on the surface of yeast (scFv) scFv: QVQLQQPGAELVRPGASVKLSCKASGYTFTSYWMNWVKQRPEQGLEWIGRIDPYDSETHYNQKFKDKAILTVDKSSSTAFVQLTSLTSEDSAVYYCVSDGYWGAGTTVTVSSGPAKELTPLKEAKVSDVVMTQTPLTLSVTTGQPASISCKSSQSLLDSDGKTYLNWLFQRPGESPKLLIYVVSKLESGVPDRFTGSGSGTDFTLKISRVEAEDLGVYYCLQATHFPWTFGGGTKLEIKRAAALESRGPFEGKPIPNPLLGLDSTRTGHHHHHH",binding result,binds
